Assay results from patent US7595158B2, “Bcl2L12 polypeptide activators and inhibitors” (Dana-Farber Cancer Institute, Inc., priority 2003, dated 2009).

System: astrocytes
Assay: Plasma membrane integrity (SYTOX Green) and LEHDase activity in STS-treated astrocytes
Assay type: cell-based
Conditions: range of STS concentrations
Description: To assess and quantify plasma membrane integrity, vector or Bcl2L12-V5 transfected astrocytes were treated with or without STS (500 nM) for 24 hours and stained with a combination of Hoechst (a DNA intercalating dye that enters living as well as apoptotic or necrotic cells) and SYTOX Green (a green fluorescent dye that only enters cells with a disintegrated plasma membrane). FIG. 4B is a picture of STS treated and untreated cells transfected with either a control vector (pBabe) of a vector encoding a Bcl2L12-V5 polypeptide.
In addition, the green cells were counted over a range of different STS concentration (FIG. 4C; bars), and caspase-9 activity was determined by quantifying LEHDase activity in the corresponding cell lysates (FIG. 4C; histogram). […] SYTOX green positive cells were also quantified using a FACS based analysis assessing the increase in green fluorescence.

B1: Bcl2L12-V5: Bcl2L12 polypeptide having the V5 epitope tag, ectopically expressed from pBabe-Bcl2L12-V5 vector; human amino acid sequence 1-334 (protein)
chain: MGRPAGLFPPLCPFLGFRPEACWERHMQIERAPSVPPFLRWAGYRPGPVRRRGKVELIKFVRVQWRRPQVEWRRRRWGPGPGASMAGSEELGLREDTLRVLAAFLRRGEAAGSPVPTPPRSPAQEEPTDFLSRLRRCLPCSLGRGAAPSESPRPCSLPIRPCYGLEPGPATPDFYALVAQRLEQLVQEQLKSPPSPELQGPPSTEKEAILRRLVALLEEEAEVINQKLASDPALRSKLVRLSSDSFARLVELFCSRDDSSRPSRACPGPPPPSPEPLARLALAMELSRRVAGLGGTLAGLSVEHVHSFTPWIQAHGGWEGILAVSPVDLNLPLD
modifications: left off: small tags and cut ends
SYTOX Green positivity: significantly increased
caspase-9 activity (LEHDase): dramatically reduced
